Measurements as given in US20210122813A1 (Kyowa Kirin, published 2021).

T1: human BMP10 mature dimer (manufactured by R & D Systems, Inc., Cat #2926-BP) (human, UniProt O95393 317-424)
T1 construct: Bought product; also called human mature BMP10; mature BMP10
T1 sequence: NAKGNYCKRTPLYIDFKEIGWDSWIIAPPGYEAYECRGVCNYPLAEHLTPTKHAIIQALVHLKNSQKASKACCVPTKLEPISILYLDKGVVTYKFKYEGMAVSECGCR

B1: VLres04HVmut04 (antibody, V domains shown)
VH: QVQLQESGPDLVQPSQTLDITCTVSGFSLTTYNVHWVRQPPGKGLEWMGTMWNGGGIDYNSAFKSRLAISRDTSKNEVFLKMDSLQTDDTAKYFCARLGYYVDYWGQGILVTVSS
VL: QFALIQSDSMSTSAGSTVKLSCKRSTGNIGSSYVYWYQQHEGRSPTTMIYDGDKRPDGVPDRFSGSIDSSSNSASLTINDVQIEDEAVYFCQSFSSGIKFIFGGGTKLTVL
notes: Humanized 18C1 antibody; also called VLres04HVmut04 antibody; hz18C1 antibody
B2: VLres02HVmut07 (antibody, V domains shown)
VH: QVQLQESGPDLVQPSQTLDITCTVSGFSLTTYNVHWVRQPPGKGLEWMGTMWNGGGIDYNSAFKDRLAISRDTSKNQVSLKMDSLQTDDTAKYFCARLGYYVDYWGQGILVTVSS
VL: QFVLIQSDSMSTSAGSTVKLSCKRSTGNIGSSYVYWYQQHEGRSPTTMIYDGDKRPDGVPDRFSGSIDSSSNSASLTINDVQIEDEAVYFCQSFSSGIKFIFGGGTKLTVL
notes: Humanized 18C1 antibody; also called hz18C1 antibody; anti-BMP10 humanized antibody
B3: VLres02HVmut08 (antibody, V domains shown)
VH: QVQLQESGPDLVKPSQTLDITCTVSGFSLTTYNVHWVRQPPGKGLEWMGTMWNGGGIDYNSAFKDRLTISRDTSKNQVFLKMDSLQTDDTAVYFCARLGYYVDYWGQGILVTVSS
VL: QFVLIQSDSMSTSAGSTVKLSCKRSTGNIGSSYVYWYQQHEGRSPTTMIYDGDKRPDGVPDRFSGSIDSSSNSASLTINDVQIEDEAVYFCQSFSSGIKFIFGGGTKLTVL
notes: as for B2
B4: VLres04VHres16 (antibody, V domains shown)
VH: QVQLKETGPDLVQPTQTLDITCTVSGFSLTTYNVHWVRQPPGKGLEWMGTMWNGGGIDYNSAFKSRLAISRDTSKSEVFLKMDSLQTDDTAKYFCARLGYYVDYWGQGIMVTVSS
VL: QFALIQSDSMSTSAGSTVKLSCKRSTGNIGSSYVYWYQQHEGRSPTTMIYDGDKRPDGVPDRFSGSIDSSSNSASLTINDVQIEDEAVYFCQSFSSGIKFIFGGGTKLTVL
notes: Humanized 18C1 antibody; also called VLres04VHres16 antibody; hz18C1 antibody
B5: VLres06HVmut02 (antibody, V domains shown)
VH: QVQLQESGPDLVKPSQTLDITCTVSGFSLTTYNVHWVRQPPGKGLEWMGTMWNGGGIDYNSAFKSRLTISRDTSKNQVFLKMDSLQTDDTAKYFCARLGYYVDYWGQGILVTVSS
VL: QFVLIQSDSMSTSAGSTVKLSCKRSTGNIGSSYVYWYQQHEGRSPTTMIYDGDKRPDGVPDRFSGSIDSSSNSASLTINDVQVEDEAIYFCQSFSSGIKFIFGGGTKLTVL
notes: as for B2
B6: VLres06HVmut10 (antibody, V domains shown)
VH: QVQLQESGPDLVQPSQTLDITCTVSGFSLTTYNVHWVRQPPGKGLEWMGTMWNGGGIDYNSAFKDRLAISRDTSKNEVFLKMDSLQTDDTAVYFCARLGYYVDYWGQGILVTVSS
VL: QFVLIQSDSMSTSAGSTVKLSCKRSTGNIGSSYVYWYQQHEGRSPTTMIYDGDKRPDGVPDRFSGSIDSSSNSASLTINDVQVEDEAIYFCQSFSSGIKFIFGGGTKLTVL
notes: as for B2
B7: VLres07HVmut10 (antibody, V domains shown)
VH: QVQLQESGPDLVQPSQTLDITCTVSGFSLTTYNVHWVRQPPGKGLEWMGTMWNGGGIDYNSAFKDRLAISRDTSKNEVFLKMDSLQTDDTAVYFCARLGYYVDYWGQGILVTVSS
VL: QFALIQSDSMSTSLGSTVTLSCKRSTGNIGSSYVYWYQQHEGRSPTTMIYDGDKRPDGVPDRFSGSIDSSSNSASLTINDVQVEDEAIYFCQSFSSGIKFIFGGGTKLTVL
notes: Humanized 18C1 antibody; also called VLres07HVmut10 antibody; hz18C1 antibody
B8: VLres07VHres16 (antibody, V domains shown)
VH: QVQLKETGPDLVQPTQTLDITCTVSGFSLTTYNVHWVRQPPGKGLEWMGTMWNGGGIDYNSAFKSRLAISRDTSKSEVFLKMDSLQTDDTAKYFCARLGYYVDYWGQGIMVTVSS
VL: QFALIQSDSMSTSLGSTVTLSCKRSTGNIGSSYVYWYQQHEGRSPTTMIYDGDKRPDGVPDRFSGSIDSSSNSASLTINDVQVEDEAIYFCQSFSSGIKFIFGGGTKLTVL
notes: Humanized 18C1 antibody; also called VLres07VHres16 antibody; hz18C1 antibody
B9: VLres08HVmut04 (antibody, V domains shown)
VH: QVQLQESGPDLVQPSQTLDITCTVSGFSLTTYNVHWVRQPPGKGLEWMGTMWNGGGIDYNSAFKSRLAISRDTSKNEVFLKMDSLQTDDTAKYFCARLGYYVDYWGQGILVTVSS
VL: QFALIQSDSMSTSAGSTVKLSCKRSTGNIGSSYVYWYQQHEGRSPTTMIYDGDKRPDGVPDRFSGSIDSSSNSASLTINDVQVEDEAIYFCQSFSSGIKFIFGGGTKLTVL
notes: as for B2
B10: VLres08HVmut08 (antibody, V domains shown)
VH: QVQLQESGPDLVKPSQTLDITCTVSGFSLTTYNVHWVRQPPGKGLEWMGTMWNGGGIDYNSAFKDRLTISRDTSKNQVFLKMDSLQTDDTAVYFCARLGYYVDYWGQGILVTVSS
VL: QFALIQSDSMSTSAGSTVKLSCKRSTGNIGSSYVYWYQQHEGRSPTTMIYDGDKRPDGVPDRFSGSIDSSSNSASLTINDVQVEDEAIYFCQSFSSGIKFIFGGGTKLTVL
notes: as for B2
B11: VLres08VHres16 (antibody, V domains shown)
VH: QVQLKETGPDLVQPTQTLDITCTVSGFSLTTYNVHWVRQPPGKGLEWMGTMWNGGGIDYNSAFKSRLAISRDTSKSEVFLKMDSLQTDDTAKYFCARLGYYVDYWGQGIMVTVSS
VL: QFALIQSDSMSTSAGSTVKLSCKRSTGNIGSSYVYWYQQHEGRSPTTMIYDGDKRPDGVPDRFSGSIDSSSNSASLTINDVQVEDEAIYFCQSFSSGIKFIFGGGTKLTVL
notes: Humanized 18C1 antibody; also called VLres08VHres16 antibody; hz18C1 antibody
B12: VLres10HVmut02 (antibody, V domains shown)
VH: QVQLQESGPDLVKPSQTLDITCTVSGFSLTTYNVHWVRQPPGKGLEWMGTMWNGGGIDYNSAFKSRLTISRDTSKNQVFLKMDSLQTDDTAKYFCARLGYYVDYWGQGILVTVSS
VL: QFVLIQSDSMSTSAGSTVKLSCKRSTGNIGSSYVYWYQQHEGRSPTTMIYDGDKRPDGVPDRFSGSIDSSSNSASLTINNVQIEDEAVYFCQSFSSGIKFIFGGGTKLTVL
notes: Humanized 18C1 antibody; also called VLres10HVmut02 antibody; hz18C1 antibody
B13: VLres10HVmut04 (antibody, V domains shown)
VH: QVQLQESGPDLVQPSQTLDITCTVSGFSLTTYNVHWVRQPPGKGLEWMGTMWNGGGIDYNSAFKSRLAISRDTSKNEVFLKMDSLQTDDTAKYFCARLGYYVDYWGQGILVTVSS
VL: QFVLIQSDSMSTSAGSTVKLSCKRSTGNIGSSYVYWYQQHEGRSPTTMIYDGDKRPDGVPDRFSGSIDSSSNSASLTINNVQIEDEAVYFCQSFSSGIKFIFGGGTKLTVL
notes: as for B2
B14: VLres10HVmut08 (antibody, V domains shown)
VH: QVQLQESGPDLVKPSQTLDITCTVSGFSLTTYNVHWVRQPPGKGLEWMGTMWNGGGIDYNSAFKDRLTISRDTSKNQVFLKMDSLQTDDTAVYFCARLGYYVDYWGQGILVTVSS
VL: QFVLIQSDSMSTSAGSTVKLSCKRSTGNIGSSYVYWYQQHEGRSPTTMIYDGDKRPDGVPDRFSGSIDSSSNSASLTINNVQIEDEAVYFCQSFSSGIKFIFGGGTKLTVL
notes: as for B2
B15: VLres10HVmut10 (antibody, V domains shown)
VH: QVQLQESGPDLVQPSQTLDITCTVSGFSLTTYNVHWVRQPPGKGLEWMGTMWNGGGIDYNSAFKDRLAISRDTSKNEVFLKMDSLQTDDTAVYFCARLGYYVDYWGQGILVTVSS
VL: QFVLIQSDSMSTSAGSTVKLSCKRSTGNIGSSYVYWYQQHEGRSPTTMIYDGDKRPDGVPDRFSGSIDSSSNSASLTINNVQIEDEAVYFCQSFSSGIKFIFGGGTKLTVL
notes: Humanized 18C1 antibody; also called VLres10HVmut10 antibody; hz18C1 antibody
B16: VLres10VHres16 (antibody, V domains shown)
VH: QVQLKETGPDLVQPTQTLDITCTVSGFSLTTYNVHWVRQPPGKGLEWMGTMWNGGGIDYNSAFKSRLAISRDTSKSEVFLKMDSLQTDDTAKYFCARLGYYVDYWGQGIMVTVSS
VL: QFVLIQSDSMSTSAGSTVKLSCKRSTGNIGSSYVYWYQQHEGRSPTTMIYDGDKRPDGVPDRFSGSIDSSSNSASLTINNVQIEDEAVYFCQSFSSGIKFIFGGGTKLTVL
notes: Humanized 18C1 antibody; also called VLres10VHres16 antibody; hz18C1 antibody
B17: VLres14HVmut07 (antibody, V domains shown)
VH: QVQLQESGPDLVQPSQTLDITCTVSGFSLTTYNVHWVRQPPGKGLEWMGTMWNGGGIDYNSAFKDRLAISRDTSKNQVSLKMDSLQTDDTAKYFCARLGYYVDYWGQGILVTVSS
VL: QFVLIQSDSMSTSAGSTVKLSCKRSTGNIGSSYVYWYQQHEGRSPTTMIYDGDKRPDGVPDRFSGSIDSSSNSAFLTINDVQIEDEAVYFCQSFSSGIKFIFGGGTKLTVL
notes: as for B2
B18: VLres14HVmut08 (antibody, V domains shown)
VH: QVQLQESGPDLVKPSQTLDITCTVSGFSLTTYNVHWVRQPPGKGLEWMGTMWNGGGIDYNSAFKDRLTISRDTSKNQVFLKMDSLQTDDTAVYFCARLGYYVDYWGQGILVTVSS
VL: QFVLIQSDSMSTSAGSTVKLSCKRSTGNIGSSYVYWYQQHEGRSPTTMIYDGDKRPDGVPDRFSGSIDSSSNSAFLTINDVQIEDEAVYFCQSFSSGIKFIFGGGTKLTVL
notes: as for B2
B19: VLres14HVmut10 (antibody, V domains shown)
VH: QVQLQESGPDLVQPSQTLDITCTVSGFSLTTYNVHWVRQPPGKGLEWMGTMWNGGGIDYNSAFKDRLAISRDTSKNEVFLKMDSLQTDDTAVYFCARLGYYVDYWGQGILVTVSS
VL: QFVLIQSDSMSTSAGSTVKLSCKRSTGNIGSSYVYWYQQHEGRSPTTMIYDGDKRPDGVPDRFSGSIDSSSNSAFLTINDVQIEDEAVYFCQSFSSGIKFIFGGGTKLTVL
notes: Humanized 18C1 antibody; also called VLres14HVmut10 antibody; hz18C1 antibody
B20: VLres14VHres16 (antibody, V domains shown)
VH: QVQLKETGPDLVQPTQTLDITCTVSGFSLTTYNVHWVRQPPGKGLEWMGTMWNGGGIDYNSAFKSRLAISRDTSKSEVFLKMDSLQTDDTAKYFCARLGYYVDYWGQGIMVTVSS
VL: QFVLIQSDSMSTSAGSTVKLSCKRSTGNIGSSYVYWYQQHEGRSPTTMIYDGDKRPDGVPDRFSGSIDSSSNSAFLTINDVQIEDEAVYFCQSFSSGIKFIFGGGTKLTVL
notes: Humanized 18C1 antibody; also called VLres14VHres16 antibody; hz18C1 antibody

target: T1, human BMP10 mature dimer (manufactured …); assay: SPR (Biacore T100), antibody captured by anti-human IgG, human BMP10 mature dimer as analyte
Experimental: The binding activity of the anti-BMP10 antibody was measured as follows. An anti-human IgG antibody was immobilized on a CMS sensor chip (manufactured by GE Healthcare Bio-Sciences, Inc., BR100530) using Human Antibody Capture Kit (manufactured by GE Healthcare Bio-Sciences Corporation, Cat #BR-1008-39) according to the attached protocol. To a flow cell in which the anti-human IgG antibody was immobilized, the antibody prepared at 5 μg/mL was added at a flow rate of 10 μL/min for 10 seconds.
Subsequently, human mature BMP10 prepared at 5 concentrations by 3-fold serial dilution from the 100 ng/mL was added thereto at a flow rate of 30 μL/min, and a binding reaction was monitored for 1 minute and a dissociation reaction was monitored for 10 minutes. The obtained sensorgram was analyzed using Bia Evaluation Software (manufactured by GE Healthcare Bio-Sciences Corporation), and the kinetic constant of each antibody was calculated. The calculated association rate constant (ka), dissociation rate constant (kd), and dissociation constant [kd/ka=KD] of each antibody are shown in Table 4.

B1 and B2 are within 1.5-fold of each other in Kd: 3.19 pM for the first, 2.97 pM for the second.

B3 and B4 are within 1.5-fold of each other in Kd: 3.05 pM for the first, 3.21 pM for the second.

B5 and B6 are within 1.5-fold of each other in Kd: 3.37 pM for the first, 2.94 pM for the second.

B7 and B8 are within 1.5-fold of each other in Kd: 2.69 pM for the first, 3.11 pM for the second.

B9 and B10 are within 1.5-fold of each other in Kd: 2.88 pM for the first, 2.99 pM for the second.

B11 and B12 are within 1.5-fold of each other in Kd: 3.25 pM for the first, 3.41 pM for the second.

B13 and B14 are within 1.5-fold of each other in Kd: 3.2 pM for the first, 3.06 pM for the second.

Going from B15 to B16, the Kd rises from 2.19 pM to 3.57 pM (1.6-fold).

B17 and B18 are within 1.5-fold of each other in Kd: 2.99 pM for the first, 2.71 pM for the second.

B19 and B20 are within 1.5-fold of each other in Kd: 2.84 pM for the first, 3.3 pM for the second.
